Experimental data: article PMC10251311

Assays:
Test in all cases: MST
[1] = target: RSV postfusion F (Respiratory syncytial virus) (UniProt P03420+P03420); conditions: T in primer region unmodified, MST: PBS, 0.05% Tween 20, 25 C, 10-20 nM Cy5-aptamer, AlphaScreen: PBS with mucin 10 mg/L, BSA 1 mg/ml, salmon sperm DNA 1 mg/L, RT, 10 nM biotin-aptamer …
[2] = target: hMPV prefusion F v3B (Human metapneumovirus) (UniProt Q6WB98); conditions: every U is TAdU (5-[(3-indolyl)propionamide-N-allyl]-2'-deoxyuridine); all sugars deoxyribose; T in primer region unmodified; MST: PBS, 0.05% Tween 20, 25 C, 10-20 nM Cy5-aptamer; AlphaScreen: PBS with mucin 10 mg/L, BSA 1 mg/ml, salmon sperm DNA 1 mg/L, RT, 10 nM biotin-aptamer …
Sequence of hMPV prefusion F v3B (Human metapneumovirus) (Q6WB98 whole entry, the tested form may be a part): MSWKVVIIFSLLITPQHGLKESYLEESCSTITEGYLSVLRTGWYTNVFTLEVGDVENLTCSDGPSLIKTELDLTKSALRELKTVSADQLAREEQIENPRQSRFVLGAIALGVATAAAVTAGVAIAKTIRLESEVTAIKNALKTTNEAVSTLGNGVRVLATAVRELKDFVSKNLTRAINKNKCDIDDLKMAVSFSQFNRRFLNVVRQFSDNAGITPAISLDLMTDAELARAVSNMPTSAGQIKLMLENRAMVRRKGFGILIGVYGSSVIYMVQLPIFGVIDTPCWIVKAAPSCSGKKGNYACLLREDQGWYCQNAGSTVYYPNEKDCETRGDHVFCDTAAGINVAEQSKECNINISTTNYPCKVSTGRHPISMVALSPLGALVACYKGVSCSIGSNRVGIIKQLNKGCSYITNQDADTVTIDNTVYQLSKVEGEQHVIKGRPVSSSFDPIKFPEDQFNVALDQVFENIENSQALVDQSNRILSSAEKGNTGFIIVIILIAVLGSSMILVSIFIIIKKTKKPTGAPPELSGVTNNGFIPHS

[3] = tested on: Influenza H1 hemagglutinin S106 DS26r (Influenza virus H1); conditions: every U is TAdU (5-[(3-indolyl)propionamide-N-allyl]-2'-deoxyuridine); all sugars deoxyribose; T in primer region unmodified; MST: PBS, 0.05% Tween 20, 25 C, 10-20 nM Cy5-aptamer; AlphaScreen: PBS with mucin 10 mg/L, BSA 1 mg/ml, salmon sperm DNA 1 mg/L, RT, 10 nM biotin-aptamer …

Row | Sequence | Kd ([1]; every U is TAdU (deoxy)) [µM] | Kd ([1]; every U is TAdU (5-[(3-indolyl)propionamide-N-allyl]-2'-deoxyuridine), all sugars deoxyribose) [µM] | Kd [2] [µM] | Kd [3] [µM]
1 | GATCGAGCCAGCTACGTCAUGGUUGGGAGGUGUUGUGGGGAUGGUGGGUGGGAGUAUGACAUGCCUCAGCGACUA [D4] | 2.76 | – | – | –
2 | GATCGAGCCAGCTACGTCAUGCUGUCAAUGGGUGGGUGUGGUGGGGUUGAUGUUAUGUGACAUGCCUCAGCGACUA [A2] | – | 0.994 | 6.95 | 14.7
3 | GATCGAGCCAGCTACGTCAGUUAUGGUAUAGGUUGGUGGUGGGGGGGGGUUGUGGUGGGACAUGCCUCAGCGACUA [B1] | 3.99 | – | – | –
